Laboratory results taken from patent publication US20250235545A1, “POLYPEPTIDE CONJUGATE AND USE THEREOF” (SHANGHAI CHIXI BIOMEDICAL TECHNOLOGY CO., LTD, priority 2024, published 2025).
≈ marks a conversion by molar mass, not a printed value. Read-outs that look alike come from different tables or passages of the source. Where a SMILES comes first, the peptide text is derived from it. The star is where a group is joined. Belotecan = CC[C@@]1(O)C(=O)OCc2c1cc1n(c2=O)Cc2c-1nc1ccccc1c2CCN(C(C)C)*; X8 = CC[C@@]1(O)C(=O)OCc2c1cc1n(c2=O)Cc2c-1nc1ccccc1c2CCN(C1CCCC1)*; X7 = CC[C@@]1(O)C(=O)OCc2c1cc1n(c2=O)Cc2c-1nc1ccccc1c2CCN(C)*; Propanoyl(3-maleimido) = O=C1C=CC(=O)N1CCC(=O)*; PEG6 = NCCOCCOCCOCCOCCOCCOCCC(=O)O

Experiments:
[1] = test system: sarcoma SJSA-1 tumor model; conditions: Table 7
How it was run: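 Female BALB/c nude mice (6-8 weeks) bearing subcutaneous right-chest SJSA-1 xenografts from 2×10^7 cells were randomized, three per group, once tumors reached at least 100 mm^3. Treatment given once a week for three weeks starting day 1; saline controls.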

[2] = MTD determination in mice (Examples 27, 36, 44); type: in vivo; conditions: female, mouse, in vivo; mice, monitored for 14 d; Table 9
Source text: Test animals: 6-8 weeks old mice, all female; mice were grouped randomly, with six mice in each group, administered with drugs at different concentration gradients separately and monitored for 14 d. A mouse was euthanized at a loss of 20% of its initial weight and deemed to have died of poisoning.

[3] = test system: A549 (non-small cell lung cancer); assay: cells; type: cell-based; conditions: CCK8, 48 h; Table 6
How it was run: (§1)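 CCK8 absorbance at 450 nm, read after roughly 2 h of staining, gave cell survival rates from which IC50 values were derived. Beforehand, 5,000 cells/well were exposed for 48 h at 37° C to serial drug dilutions (triplicate wells; 0.1% DMSO vehicle control; cell-free blanks).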

[4] = test system: SKBR3 (breast cancer tissue); assay: cells; type: cell-based; conditions: CCK8, 48 h; Table 6
How it was run: as §1

SJSA-1 (sarcoma tissue) = assay: cells; type: cell-based; conditions: CCK8, 48 h; Table 6
How it was run: as §1

A2780 (ovarian cancer) = assay: cells; type: cell-based; conditions: CCK8, 48 h; Table 6
How it was run: as §1

[5] = test system: colo320 colorectal cancer tumor model
How it was run: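 Dosing was once a week for four weeks, with saline as control, in randomized groups of three mice. Groups were formed after subcutaneous colo320 xenografts (7.5×10^6 cells, right chest) grew to ≥120 mm^3 in female 6–8-week-old BALB/c nude mice.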

[6] = Tumor homogenate activation efficiency, colorectal cancer tissue (Example 37); type: in vitro ADME; conditions: pH 5.0, 37° C., 2 h; Table 10
Experimental: Buffer preparation: 50 mM PH buffer (MES), 250 mM NaCl, pH adjusted to 5.0 with 0.5 M of sodium hydroxide.
The polypeptide conjugate was prepared into a 1 mg/ml solution with pH 5.0 buffer, 100 μg of tumor tissue homogenate was added, (the tumor tissue homogenate was the homogenate of tumor tissues prepared with a Jingxin F6/10 handheld homogenizer), and the solution was placed at 37° C. for 2 h. The tumor tissue homogenate could effectively activate the polypeptide conjugate and release Belotecan, and the activation efficiencies of the drugs in tumor tissues were compared by HPLC allowing determination of a decrease in the compounds and an increase in Belotecan:
Release percentage=peak area of Belotecan/total peak area of Belotecan and all other Belotecan-containing compounds

[7] = Homogenate activation efficiency, heart tissue (Examples 28, 37); type: in vitro ADME; conditions: pH 5.0, 37° C., 2 h; Table 10
[8] = Tumor homogenate activation efficiency, non-small cell lung cancer tissue (Examples 28, 37); type: in vitro ADME; conditions: pH 5.0, 37° C., 2 h; Table 10
How it was run: (§2)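 HPLC read-out: release % = Belotecan peak area / summed areas of Belotecan plus every Belotecan-containing compound. Samples were 1 mg/ml conjugate with 100 μg handheld-homogenized tissue in pH 5.0 MES/NaCl buffer, held 2 h at 37° C.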

[9] = test system: colo320 (colorectal cancer tissue); assay: cells; type: cell-based; conditions: CCK8, 48 h; Table 6
Experimental: Different types of cells were cultured with complete media (RPMI1640 (DMEM high sugar medium)+10% fetal bovine serum+1×P/S+sodium pyruvate 1 mM solution) in an incubator at 37° C. and 5% CO2 until the cells grew to a sufficient number, and the cells were collected, centrifuged at 1,000 g for 5 min, resuspended with an appropriate volume of a 10% RMPI1640 (DMEM high sugar medium) medium and adjusted to an appropriate density. In a 96-well culture plate, 100 μL of cell culture fluid containing different concentrations of drugs was added, control wells (0.1% DMSO) with only corresponding drug solvents without drugs, as well as blank wells (Blank) with only the medium but without cells were set, and three parallel wells were set in each group. After that, the cells after cell counting were inoculated onto 96-well culture plates, with 100 μL of cell suspension per well, and an inoculation concentration of the cells was 5,000 cells (100 μL)/well. The plates were then cultured in a CO2 (5%) incubator at 37° C. for 48 h. After 48 h, 10 μL of a cell proliferation staining reagent (CCK8) was added to each well, the plates were incubated in a cell incubator for around 2 h, and an absorbance at 450 nm was detected.
Cell survival rates and median inhibitory concentrations (IC50) of the drugs on the cells were calculated.

[10] = Tumor homogenate activation efficiency, sarcoma tissue (Examples 28, 37); type: in vitro ADME; conditions: pH 5.0, 37° C., 2 h; Table 10
How it was run: as §2

[11] = Tumor homogenate activation efficiency, breast cancer tissue (Examples 28, 37); type: in vitro ADME; conditions: pH 5.0, 37° C., 2 h; Table 10
How it was run: as §2

[12] = Tumor homogenate activation efficiency, ovarian cancer tissue (Examples 28, 37); type: in vitro ADME; conditions: pH 5.0, 37° C., 2 h; Table 10
How it was run: as §2

[13] = 15 mg/kg once a week for three weeks
[14] = 45 mg/kg once a week for three weeks
[15] = 15 mg/kg once a week for four weeks, Table 8
[16] = 45 mg/kg once a week for four weeks, Table 8
[17] = Table 13 (Example 42), dose 45 mg/kg, once a week for four weeks, BALB/c mice
[18] = Table 14 (Example 43), dose 45 mg/kg, once a week for four weeks, BALB/c mice

SMILES | Mouse weight (%) [1, 14] | SJSA-1 (sarcoma tissue) growth rate (%) [1, 14] [%] | SJSA-1 (sarcoma tissue) mean tumor volume (mm^3) [1, 14] [mm^3] | MTD at 14 d [2] [mg/kg] | IC50 Non-small cell lung cancer tissue (A549) [3] [µg/mL] | IC50 Breast cancer tissue (SKBR3) [4] [µg/mL] | IC50 Sarcoma tissue (SJSA-1) (SJSA-1 (sarcoma tissue)) [µg/mL] | IC50 Ovarian cancer tissue (A2780) (A2780 (ovarian cancer)) [µg/mL] | Mouse weight (%) [5, 15] | Mouse weight (%) [5, 16] | colo320 (colorectal cancer cell) growth rate (%) [5, 16] [%] | colo320 (colorectal cancer cell) mean tumor volume (mm^3) [5, 16] [mm^3] | Mouse weight (%) [5, 18] | Percentage of release efficiency (%) Colorectal cancer tissue (colo320) [6] [%] | Percentage of release efficiency (%) Heart tissue [7] [%] | Percentage of release efficiency (%) Non-small cell lung cancer tissue (A549) [8] [%] | IC50 Colorectal cancer tissue (colo320) [9] [µg/mL] | Percentage of release efficiency (%) Sarcoma tissue (SJSA1) [10] [%] | Percentage of release efficiency (%) Breast cancer tissue (SKBR3) [11] [%] | Percentage of release efficiency (%) Ovarian cancer tissue (A2780) [12] [%] | other results
CC[C@@]1(O)C(=O)OCc2c1cc1n(c2=O)Cc2c-1nc1ccccc1c2CCN(C(=O)[C@H](CC(C)C)NC(=O)[C@H](Cc1ccccc1)NC(=O)CNC(=O)CNC(=O)CCOCCOCCOCCOCCOCCOCCNC(=O)CCN1C(=O)C=CC1=O)C(C)C [MI-6PEG-GGFL-Belotecan] ({Propanoyl(3-maleimido)-PEG6}-GGFL-Belotecan) | +22% | 995.32 | 1254.1 | 100 | 2.21 (≈ 1.71 µM) | 3.69 (≈ 2.85 µM) | 1.24 (≈ 0.958 µM) | 1.91 (≈ 1.48 µM) | +27% | +5% | 671.56 | 789.4 | +5% | 83.1 | 1.8 | 77.3 | 2.86 (≈ 2.21 µM) | 68 | 73.2 | 73.6 | Mouse weight (%) [1, 13]: +27%; SJSA-1 (sarcoma tissue) growth rate (%) [1, 13]: 1134.95%; SJSA-1 (sarcoma tissue) mean tumor volume (mm^3) [1, 13]: 1278.6 mm^3; colo320 (colorectal cancer cell) growth rate (%) [5, 15]: 994.05%; colo320 (colorectal cancer cell) mean tumor volume (mm^3) [5, 15]: 1254.2 mm^3; Mouse weight (%) [5, 17]: +5%; colo320 (colorectal cancer cell) growth rate (%) [5, 17]: 671.56%; colo320 (colorectal cancer cell) mean tumor volume (mm^3) [5, 17]: 789.4 mm^3; colo320 (colorectal cancer cell) growth rate (%) [5, 18]: 671.56%; colo320 (colorectal cancer cell) mean tumor volume (mm^3) [5, 18]: 789.4 mm^3
CC[C@@]1(O)C(=O)OCc2c1cc1n(c2=O)Cc2c-1nc1ccccc1c2CCN(C)C(=O)[C@H](CC(C)C)NC(=O)[C@H](CC(N)=O)NC(=O)[C@H](C)NC(=O)[C@H](C)NC(=O)CCOCCOCCOCCOCCOCCOCCNC(=O)CCN1C(=O)C=CC1=O [MI-6PEG-AANL-D1] ({Propanoyl(3-maleimido)-PEG6}-AANL-X7) | +29% | – | – | 200 | 3.05 (≈ 2.42 µM) | 3.25 (≈ 2.58 µM) | 2.33 (≈ 1.85 µM) | 2.09 (≈ 1.66 µM) | – | +16% | – | – | +16% | 72.4 | 3 | 69.5 | 3.82 (≈ 3.03 µM) | 81.2 | 80 | 66.4 | –
CC[C@@]1(O)C(=O)OCc2c1cc1n(c2=O)Cc2c-1nc1ccccc1c2CCN(C)C(=O)[C@H](CC(C)C)NC(=O)[C@H](Cc1ccccc1)NC(=O)CNC(=O)CNC(=O)CCOCCOCCOCCOCCOCCOCCNC(=O)CCN1C(=O)C=CC1=O [MI-6PEG-GGFL-D1] ({Propanoyl(3-maleimido)-PEG6}-GGFL-X7) | +11% | 1181.64 | 1485.2 | 120 | – | – | – | – | – | +19% | 766.16 | 900.6 | +19% | 86.7 | 1.4 | 82.5 | – | 73.5 | 69.5 | 80 | Mouse weight (%) [5, 17]: +19%; colo320 (colorectal cancer cell) growth rate (%) [5, 17]: 766.16%; colo320 (colorectal cancer cell) mean tumor volume (mm^3) [5, 17]: 900.6 mm^3; colo320 (colorectal cancer cell) growth rate (%) [5, 18]: 766.16%; colo320 (colorectal cancer cell) mean tumor volume (mm^3) [5, 18]: 900.6 mm^3
CC[C@@]1(O)C(=O)OCc2c1cc1n(c2=O)Cc2c-1nc1ccccc1c2CCN(C(=O)[C@H](CC(C)C)NC(=O)[C@H](CC(N)=O)NC(=O)[C@H](C)NC(=O)[C@H](C)NC(=O)CCOCCOCCOCCOCCOCCOCCNC(=O)CCN1C(=O)C=CC1=O)C1CCCC1 [MI-6PEG-AANL-D8] ({Propanoyl(3-maleimido)-PEG6}-AANL-X8) | +17% | – | – | 200 | 2.27 (≈ 1.73 µM) | 1.98 (≈ 1.51 µM) | 1.54 (≈ 1.17 µM) | 1.27 (≈ 0.965 µM) | +33% | +15% | – | – | – | 78.9 | 2.2 | 68.4 | 2.97 (≈ 2.26 µM) | 81.1 | 70.2 | 71 | –
